B1: Poly(rC)-binding protein 1, residues 278 to 350; numbered along this chain, Q15365 (parent)
chain: TQTTHELTIPNNLIGCIIGRQGANINEIRQMSGAQIKIANPVEGSSGRQVTITGSAASISLAQYLINARLSSE

± gives the uncertainty stated by the source.

In the data set the parent is B1. Kind of data set: abundance fitness (aPCA) (normalised: wild type 0, dead -1); higher = more abundant; growth selection in yeast, the domain comes from the species named. To be noted: Homo sapiens.
As to P10C, the abundance fitness is -0.577 ± 0.13.

Consider P10D, for which the abundance fitness was -0.363 ± 0.093.

In the case of P10G, the abundance fitness is -0.474 ± 0.054.

Consider P10V, for which the abundance fitness is -0.707 ± 0.1.

Regarding P10A, the abundance fitness was -0.117 ± 0.05.

In the case of P10R, the abundance fitness is -0.504 ± 0.061.

With P10I, the abundance fitness was -0.696 ± 0.49.

Turning to P10H, the abundance fitness is -0.442 ± 0.19.

In the case of P10K, the abundance fitness was -0.181 ± 0.077.

On to P10S, for which the abundance fitness was -0.274 ± 0.061.

As for P10M, the abundance fitness is -0.868 ± 0.17.

In the case of P10W, the abundance fitness was -0.915 ± 0.14.

As to P10T, the abundance fitness is -0.549 ± 0.11.

On to P10Q, for which the abundance fitness was -0.538 ± 0.1.

For the variant P10E, the abundance fitness was -0.237 ± 0.076.

Consider P10N, for which the abundance fitness is -0.938 ± 0.37.

On to P10L, for which the abundance fitness is -0.597 ± 0.083.

Regarding G15C, the abundance fitness was -0.353 ± 0.093.

For G15W, the abundance fitness was -0.14 ± 0.054.

Regarding G15A, the abundance fitness is -0.092 ± 0.047.

Regarding G15V, the abundance fitness is -0.526 ± 0.066.

With G15Q, the abundance fitness is -0.162 ± 0.073.

G15N: the abundance fitness is 0.016 ± 0.15.

For the variant G15F, the abundance fitness is -0.438 ± 0.24.

For the variant G15M, the abundance fitness came to 0 ± 0.065.

Turning to G15S, the abundance fitness is -0.035 ± 0.051.

On to G15D, for which the abundance fitness turned out to be 0.002 ± 0.093.

With G15Y, the abundance fitness is -0.046 ± 0.097.

Consider G15K, for which the abundance fitness was -0.083 ± 0.083.

As to G15E, the abundance fitness is -0.062 ± 0.05.

Turning to G15I, the abundance fitness was -0.751 ± 0.32.

Regarding G15H, the abundance fitness is -0.072 ± 0.12.

For G15T, the abundance fitness is -0.03 ± 0.073.

As for G15L, the abundance fitness is -0.465 ± 0.071.

In the case of G15R, the abundance fitness is -0.136 ± 0.043.

In the case of L13N, the abundance fitness is -0.228 ± 0.12.

As to L13K, the abundance fitness worked out at 0.062 ± 0.054.

Consider L13C, for which the abundance fitness was -0.21 ± 0.12.

On to L13V, for which the abundance fitness was -0.404 ± 0.051.

In the case of L13D, the abundance fitness is -0.012 ± 0.089.

In the case of L13S, the abundance fitness is -0.041 ± 0.054.

In the case of L13M, the abundance fitness amounted to 0.05 ± 0.06.

L13Y: the abundance fitness is -0.07 ± 0.14.

For L13R, the abundance fitness is -0.082 ± 0.032.

With L13Q, the abundance fitness came out at 0.14 ± 0.063.

Turning to L13H, the abundance fitness was -0.051 ± 0.082.

On to L13G, for which the abundance fitness is -0.477 ± 0.038.

Consider L13W, for which the abundance fitness is -0.265 ± 0.04.

On to L13F, for which the abundance fitness was -0.107 ± 0.19.

Take L13I: the abundance fitness was -0.076 ± 0.12.

For the variant L13P, the abundance fitness was -0.959 ± 0.2.

As to L13E, the abundance fitness was -0.06 ± 0.05.

Consider L13A, for which the abundance fitness is -0.069 ± 0.043.

On to L13T, for which the abundance fitness is -0.181 ± 0.068.

I25N: the abundance fitness is -0.931 ± 0.35.

As to I25G, the abundance fitness is -0.58 ± 0.057.

I25M: the abundance fitness is -0.169 ± 0.05.

On to I25K, for which the abundance fitness is -0.873 ± 0.18.

Consider I25L, for which the abundance fitness is -0.072 ± 0.049.

With I25F, the abundance fitness was -0.539 ± 0.13.

With I25D, the abundance fitness is -0.908 ± 0.41.

For I25A, the abundance fitness was -0.565 ± 0.072.

In the case of I25C, the abundance fitness is -1.01 ± 0.29.

On to I25H, for which the abundance fitness stood at 0.296 ± 0.24.

As for L7H, the abundance fitness is -0.744 ± 0.2.

L7W: the abundance fitness was -0.274 ± 0.053.

Turning to L7G, the abundance fitness was -0.517 ± 0.059.

For L7R, the abundance fitness is -0.354 ± 0.051.

With L7N, the abundance fitness is -0.803 ± 0.39.

For L7S, the abundance fitness was -0.468 ± 0.072.

On to L7C, for which the abundance fitness was -0.208 ± 0.081.

For the variant L7P, the abundance fitness is -1.03 ± 0.34.

L7Q: the abundance fitness was -0.382 ± 0.096.

Consider L7A, for which the abundance fitness is -0.504 ± 0.073.

Regarding L7E, the abundance fitness is -0.331 ± 0.085.

For the variant L7D, the abundance fitness is -0.616 ± 0.15.

As for L7M, the abundance fitness was 0.113 ± 0.055.

In the case of L7T, the abundance fitness was -0.447 ± 0.079.

Regarding L7F, the abundance fitness is -0.051 ± 0.087.

For L7V, the abundance fitness is -0.043 ± 0.048.

For the variant L7I, the abundance fitness was -0.013 ± 0.12.

With L7Y, the abundance fitness was -0.436 ± 0.13.

Take L7K: the abundance fitness was -0.53 ± 0.18.

With Q21P, the abundance fitness was -0.568 ± 0.066.

On to Q21H, for which the abundance fitness was -0.032 ± 0.083.

For Q21W, the abundance fitness is -0.339 ± 0.054.

For Q21C, the abundance fitness is -0.281 ± 0.061.

Regarding Q21I, the abundance fitness is -0.844 ± 0.22.

Take Q21R: the abundance fitness is -0.012 ± 0.033.

On to Q21K, for which the abundance fitness is 0.081 ± 0.047.

In the case of Q21E, the abundance fitness was -0.09 ± 0.041.

Turning to Q21S, the abundance fitness was -0.09 ± 0.038.

For Q21L, the abundance fitness is -0.437 ± 0.04.

Take Q21T: the abundance fitness was -0.207 ± 0.046.

Turning to Q21N, the abundance fitness stood at 0.052 ± 0.078.

On to Q21D, for which the abundance fitness was -0.134 ± 0.076.

With Q21M, the abundance fitness was -0.322 ± 0.054.

For the variant Q21G, the abundance fitness was -0.106 ± 0.041.

For the variant Q21Y, the abundance fitness is -0.217 ± 0.13.

On to Q21F, for which the abundance fitness was -0.236 ± 0.068.

In the case of C16H, the abundance fitness was -0.141 ± 0.094.

For the variant C16V, the abundance fitness is -0.083 ± 0.049.

On to C16Q, for which the abundance fitness turned out to be 0.01 ± 0.055.

C16P: the abundance fitness is -0.045 ± 0.065.

As to C16F, the abundance fitness was -0.031 ± 0.15.

Consider C16A, for which the abundance fitness came out at 0.059 ± 0.049.

For C16Y, the abundance fitness is -0.209 ± 0.21.

For C16E, the abundance fitness was -0.038 ± 0.059.

With C16M, the abundance fitness was found to be 0.092 ± 0.076.

On to C16R, for which the abundance fitness came out at 0.138 ± 0.033.

For C16K, the abundance fitness amounted to 0.093 ± 0.079.

Turning to C16D, the abundance fitness is -0.063 ± 0.12.

C16W: the abundance fitness was -0.092 ± 0.05.

Turning to C16I, the abundance fitness came out at 0.266 ± 0.1.

Take C16T: the abundance fitness was 0.131 ± 0.063.

Regarding C16G, the abundance fitness was -0.116 ± 0.042.

For C16S, the abundance fitness was -0.042 ± 0.051.

With C16L, the abundance fitness is -0.107 ± 0.048.

As to I9C, the abundance fitness was -0.839 ± 0.15.

I9N: the abundance fitness is -0.805 ± 0.21.

For the variant I9F, the abundance fitness is 0.066 ± 0.14.

For I9G, the abundance fitness was -0.771 ± 0.07.

Take I9H: the abundance fitness was -0.039 ± 0.34.

Take I9L: the abundance fitness is -0.072 ± 0.041.

On to I9T, for which the abundance fitness is -0.79 ± 0.13.

Turning to I9W, the abundance fitness is -0.847 ± 0.12.

Take I9R: the abundance fitness was -0.732 ± 0.066.

Turning to I9V, the abundance fitness is 0.076 ± 0.038.

I9P: the abundance fitness is -0.835 ± 0.13.

As to I9Y, the abundance fitness is -0.567 ± 0.17.

I9M: the abundance fitness was -0.356 ± 0.073.

As for I9E, the abundance fitness is -0.942 ± 0.14.

For the variant I9Q, the abundance fitness is -0.767 ± 0.12.

As to I9S, the abundance fitness is -0.885 ± 0.14.

For the variant I9D, the abundance fitness was -0.714 ± 0.17.

For the variant I9A, the abundance fitness was -0.688 ± 0.081.

For the variant E6S, the abundance fitness was found to be 0.08 ± 0.055.

Regarding E6N, the abundance fitness was found to be 0.161 ± 0.08.

For the variant E6M, the abundance fitness is 0.07 ± 0.067.

As for E6V, the abundance fitness was 0.135 ± 0.044.

Consider E6T, for which the abundance fitness worked out at 0.294 ± 0.074.

Regarding E6W, the abundance fitness was -0.102 ± 0.051.

With E6R, the abundance fitness was found to be 0.164 ± 0.04.

E6P: the abundance fitness is -0.965 ± 0.37.

Take E6Y: the abundance fitness amounted to 0.218 ± 0.087.

Consider E6Q, for which the abundance fitness was 0.156 ± 0.077.

With A23I, the abundance fitness was -0.115 ± 0.13.

A23R: the abundance fitness was 0.102 ± 0.043.

As to A23H, the abundance fitness was determined as 0.102 ± 0.093.

For the variant A23L, the abundance fitness was -0.22 ± 0.051.

For A23M, the abundance fitness was -0.128 ± 0.076.

For the variant A23F, the abundance fitness was found to be 0.044 ± 0.15.

As for A23W, the abundance fitness is -0.419 ± 0.089.

As to A23E, the abundance fitness turned out to be 0.056 ± 0.069.

With A23G, the abundance fitness is -0.069 ± 0.053.

As to A23P, the abundance fitness was -0.401 ± 0.1.

On to A23K, for which the abundance fitness was determined as 0.067 ± 0.072.

Regarding A23C, the abundance fitness is 0.018 ± 0.067.

Regarding A23Y, the abundance fitness is -0.296 ± 0.13.

With A23Q, the abundance fitness came out at 0.05 ± 0.061.

Regarding A23V, the abundance fitness is -0.09 ± 0.064.

As to A23N, the abundance fitness is -0.167 ± 0.14.

Turning to A23D, the abundance fitness is -0.079 ± 0.12.

Take G22M: the abundance fitness was -0.205 ± 0.06.

Take G22E: the abundance fitness was 0.137 ± 0.067.

G22I: the abundance fitness was -1.04 ± 0.27.

In the case of G22L, the abundance fitness was -0.408 ± 0.048.

Source of the values: the Human Domainome abundance scans (Beltran et al. 2025).
